These results are taken from publication doi:10.1101/2022.10.06.511240 (bioRxiv, 2022).

The experiment has as its target T1, NRT1.1-His (Arabidopsis thaliana, UniProt Q05085 1-590).
T1 sequence (looked up): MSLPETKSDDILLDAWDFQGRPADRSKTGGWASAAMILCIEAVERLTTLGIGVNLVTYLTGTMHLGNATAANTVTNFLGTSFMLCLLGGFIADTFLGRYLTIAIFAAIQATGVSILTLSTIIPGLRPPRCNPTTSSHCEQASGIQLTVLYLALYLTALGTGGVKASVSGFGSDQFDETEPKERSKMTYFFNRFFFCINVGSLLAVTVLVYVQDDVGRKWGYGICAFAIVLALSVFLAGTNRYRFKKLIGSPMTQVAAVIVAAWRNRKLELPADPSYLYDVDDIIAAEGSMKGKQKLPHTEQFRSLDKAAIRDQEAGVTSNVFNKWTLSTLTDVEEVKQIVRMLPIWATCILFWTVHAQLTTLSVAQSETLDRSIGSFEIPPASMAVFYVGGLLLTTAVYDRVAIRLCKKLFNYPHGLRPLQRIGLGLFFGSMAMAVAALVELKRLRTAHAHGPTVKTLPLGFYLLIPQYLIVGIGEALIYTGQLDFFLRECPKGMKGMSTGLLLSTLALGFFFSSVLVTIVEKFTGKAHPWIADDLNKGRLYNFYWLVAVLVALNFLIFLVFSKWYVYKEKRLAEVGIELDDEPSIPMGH
In words: pull-down.

B1: CPK6-GST (enzyme, Arabidopsis thaliana, UniProt Q38872 1-544, looked up)
chain: MGNSCRGSFKDKIYEGNHSRPEENSKSTTTTVSSVHSPTTDQDFSKQNTNPALVIPVKEPIMRRNVDNQSYYVLGHKTPNIRDLYTLSRKLGQGQFGTTYLCTDIATGVDYACKSISKRKLISKEDVEDVRREIQIMHHLAGHKNIVTIKGAYEDPLYVHIVMELCAGGELFDRIIHRGHYSERKAAELTKIIVGVVEACHSLGVMHRDLKPENFLLVNKDDDFSLKAIDFGLSVFFKPGQIFKDVVGSPYYVAPEVLLKHYGPEADVWTAGVILYILLSGVPPFWAETQQGIFDAVLKGYIDFDTDPWPVISDSAKDLIRKMLCSSPSERLTAHEVLRHPWICENGVAPDRALDPAVLSRLKQFSAMNKLKKMALKVIAESLSEEEIAGLRAMFEAMDTDNSGAITFDELKAGLRRYGSTLKDTEIRDLMEAADVDNSGTIDYSEFIAATIHLNKLEREEHLVSAFQYFDKDGSGYITIDELQQSCIEHGMTDVFLEDIIKEVDQDNDGRIDYEEFVAMMQKGNAGVGRRTMKNSLNISMRDV
Take B1: the binding result is given as “binds”.
